The results in this text go back to article PMC11417369, “DNA sequence and chromatin differentiate sequence-specific transcription factor binding in the human malaria parasite Plasmodium falciparum”.

The target in this data set is T1, AP2-LT D1 (Plasmodium falciparum, UniProt Q8IAM1 2520-2577).
T1 sequence: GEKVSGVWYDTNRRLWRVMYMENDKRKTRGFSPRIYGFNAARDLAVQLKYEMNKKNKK
Description: gcPBM; about 25 ug protein; PBS, 1% milk, 0.2 mg/ml BSA, salmon testes DNA, 0.03% Triton X-100. The note with it: tags: N-terminal GST (pGEX-4T-1), kept; label: surface-attached array probe.

B1: CACACA_site8515 (dsDNA)
DNA 1: ATAATATATATACAAACACACAATTGCGTCCACATT
DNA 2: AATGTGGACGCAATTGTGTGTTTGTATATATATTAT
Regarding B1, the binding signal is 9.67 ln median PBM intensity, better of two orientations.

B2: CACACA_negctrl_site861 (dsDNA)
DNA 1: TTTTAAAAATTAAAAAAATTAAATGTAAAAAAATGA
DNA 2: TCATTTTTTTACATTTAATTTTTTTAATTTTTAAAA
For the molecule B2, the binding signal was 8.44 ln median PBM intensity, better of two orientations.

B3: CACACA_negctrl_site8 (dsDNA)
DNA 1: AAATTATATATAATAAATAATTTCTTTTTCTAAAAG
DNA 2: CTTTTAGAAAAAGAAATTATTTATTATATATAATTT
As to B3, the binding signal is 8.42 ln median PBM intensity, better of two orientations.

B4: CACACA_negctrl_site108 (dsDNA)
DNA 1: TTTTTAATTTAAAAAAATAATATTTTATATTCCGAA
DNA 2: TTCGGAATATAAAATATTATTTTTTTAAATTAAAAA
Regarding B4, the binding signal is 8.25 ln median PBM intensity, better of two orientations.

B5: CACACA_negctrl_site1281 (dsDNA)
DNA 1: TAAAATTAAATGAAATCATTATTCATTTTTATTTTA
DNA 2: TAAAATAAAAATGAATAATGATTTCATTTAATTTTA
Consider B5, for which the binding signal was 8.47 ln median PBM intensity, better of two orientations.

B6: CACACA_negctrl_site1598 (dsDNA)
DNA 1: TATTTTAACATGTTTTCAAAAATAAAACATATAAAT
DNA 2: ATTTATATGTTTTATTTTTGAAAACATGTTAAAATA
As to B6, the binding signal was 8.55 ln median PBM intensity, better of two orientations.

B7: CACACA_negctrl_site1706 (dsDNA)
DNA 1: TTACACATATTTTTAATTATTCTGAATTCAAAAAAA
DNA 2: TTTTTTTGAATTCAGAATAATTAAAAATATGTGTAA
For B7, the binding signal was 8.38 ln median PBM intensity, better of two orientations.

B8: CACACA_negctrl_site442 (dsDNA)
DNA 1: TGGTTTCAATAATTAATAAAATATATTATTGTGAAA
DNA 2: TTTCACAATAATATATTTTATTAATTATTGAAACCA
Consider B8, for which the binding signal is 8.47 ln median PBM intensity, better of two orientations.

B9: CACACA_site1127 (dsDNA)
DNA 1: TATTTTTCCATATGCACACACACCGTATATATAATA
DNA 2: TATTATATATACGGTGTGTGTGCATATGGAAAAATA
With B9, the binding signal was 9.79 ln median PBM intensity, better of two orientations.

B10: CACACA_site3522 (dsDNA)
DNA 1: ATATAAAATAGACACGCACACAAAAAAAAAAAAAAA
DNA 2: TTTTTTTTTTTTTTTGTGTGCGTGTCTATTTTATAT
Take B10: the binding signal is 9.59 ln median PBM intensity, better of two orientations.

B11: CACACA_site2704 (dsDNA)
DNA 1: GCCATTGTACCATCCACACACATATATATATGTATA
DNA 2: TATACATATATATATGTGTGTGGATGGTACAATGGC
For B11, the binding signal was 9.64 ln median PBM intensity, better of two orientations.

B12: CACACA_negctrl_site333 (dsDNA)
DNA 1: GAATGAATGATAAATTTTTTTTTCTTTTTTTTTTTG
DNA 2: CAAAAAAAAAAAGAAAAAAAAATTTATCATTCATTC
Consider B12, for which the binding signal is 8.4 ln median PBM intensity, better of two orientations.

B13: CACACA_negctrl_site1467 (dsDNA)
DNA 1: TTATATAATGACAAAAAAAAAAAAAAAAAAAAAAAA
DNA 2: TTTTTTTTTTTTTTTTTTTTTTTTGTCATTATATAA
On to B13, for which the binding signal was 8.49 ln median PBM intensity, better of two orientations.

B14: CACACA_site9215 (dsDNA)
DNA 1: ATATATATATATATTCCACACACACCCAAAAAAAAA
DNA 2: TTTTTTTTTGGGTGTGTGTGGAATATATATATATAT
Take B14: the binding signal was 9.85 ln median PBM intensity, better of two orientations.

B15: CACACA_negctrl_site736 (dsDNA)
DNA 1: TACTTATATTATTTTATTATTAAATTTAAAACGAAA
DNA 2: TTTCGTTTTAAATTTAATAATAAAATAATATAAGTA
Regarding B15, the binding signal was 8.39 ln median PBM intensity, better of two orientations.

B16: CACACA_site1293 (dsDNA)
DNA 1: CACACCCACAAAAACACACACAAAGGTGTTCTTATA
DNA 2: TATAAGAACACCTTTGTGTGTGTTTTTGTGGGTGTG
For the molecule B16, the binding signal is 9.62 ln median PBM intensity, better of two orientations.

B17: CACACA_site1334 (dsDNA)
DNA 1: ATTACATACACGCGCACACACAAAAAAAAAAAAAAA
DNA 2: TTTTTTTTTTTTTTTGTGTGTGCGCGTGTATGTAAT
On to B17, for which the binding signal is 9.87 ln median PBM intensity, better of two orientations.

B18: CACACA_negctrl_site82 (dsDNA)
DNA 1: TTTTGTTTCTATATAAGATGGAAATATAAACTTGTA
DNA 2: TACAAGTTTATATTTCCATCTTATATAGAAACAAAA
On to B18, for which the binding signal is 8.52 ln median PBM intensity, better of two orientations.

B19: CACACA_negctrl_site473 (dsDNA)
DNA 1: TATTTAATTATATAAAATTAAATTTTTAATTCTTCC
DNA 2: GGAAGAATTAAAAATTTAATTTTATATAATTAAATA
Turning to B19, the binding signal was 8.5 ln median PBM intensity, better of two orientations.

B20: CACACA_negctrl_site344 (dsDNA)
DNA 1: TTTTGAATATGGATCTTATATATATTAAATAAATAA
DNA 2: TTATTTATTTAATATATATAAGATCCATATTCAAAA
Regarding B20, the binding signal is 8.27 ln median PBM intensity, better of two orientations.

B21: CACACA_negctrl_site1012 (dsDNA)
DNA 1: ATAATTTCTATTTCACAAAAAAAAAAAAAAAAAAAA
DNA 2: TTTTTTTTTTTTTTTTTTTTGTGAAATAGAAATTAT
For B21, the binding signal is 8.47 ln median PBM intensity, better of two orientations.

B22: CACACA_negctrl_site1118 (dsDNA)
DNA 1: ATTATCAAAAAAAAAAAAAAAAAAAAAAAAAAAAAA
DNA 2: TTTTTTTTTTTTTTTTTTTTTTTTTTTTTTGATAAT
On to B22, for which the binding signal was 8.29 ln median PBM intensity, better of two orientations.

B23: CACACA_negctrl_site775 (dsDNA)
DNA 1: TTGTATCTTCATTTTATCAGAAAAAAAAAAAAAAAT
DNA 2: ATTTTTTTTTTTTTTTCTGATAAAATGAAGATACAA
With B23, the binding signal was 8.43 ln median PBM intensity, better of two orientations.

B24: CACACA_negctrl_site169 (dsDNA)
DNA 1: TTATTTCTTCAGAAAAAATTAAAAAATTAAACAATA
DNA 2: TATTGTTTAATTTTTTAATTTTTTCTGAAGAAATAA
Take B24: the binding signal is 8.53 ln median PBM intensity, better of two orientations.

B25: CACACA_site8439 (dsDNA)
DNA 1: AGGTGAGCTCAGACTACACACACAAAGAAAAAAATA
DNA 2: TATTTTTTTCTTTGTGTGTGTAGTCTGAGCTCACCT
For B25, the binding signal is 9.69 ln median PBM intensity, better of two orientations.

B26: CACACA_site1322 (dsDNA)
DNA 1: CACGAACACAAACACAAACACACATCATATATATAT
DNA 2: ATATATATATGATGTGTGTTTGTGTTTGTGTTCGTG
Regarding B26, the binding signal was 9.81 ln median PBM intensity, better of two orientations.

B27: CACACA_site1627 (dsDNA)
DNA 1: AAGAAAAAGATGCGCATACACACAGATGAATAACAA
DNA 2: TTGTTATTCATCTGTGTGTATGCGCATCTTTTTCTT
On to B27, for which the binding signal was 9.7 ln median PBM intensity, better of two orientations.

B28: CACACA_negctrl_site1568 (dsDNA)
DNA 1: TTTTTTATAAATCAAATGAAAAATAAACTATTCAGA
DNA 2: TCTGAATAGTTTATTTTTCATTTGATTTATAAAAAA
For the molecule B28, the binding signal is 8.3 ln median PBM intensity, better of two orientations.

B29: CACACA_negctrl_site797 (dsDNA)
DNA 1: AAATGTATAATTTTTTAATACACTTATTTAAAATAA
DNA 2: TTATTTTAAATAAGTGTATTAAAAAATTATACATTT
On to B29, for which the binding signal was 8.49 ln median PBM intensity, better of two orientations.

B30: CACACA_site2529 (dsDNA)
DNA 1: ACCTAAAATAACTACACACACATAAAAAAAAAAAAA
DNA 2: TTTTTTTTTTTTTATGTGTGTGTAGTTATTTTAGGT
In the case of B30, the binding signal was 9.65 ln median PBM intensity, better of two orientations.

B31: CACACA_site5877 (dsDNA)
DNA 1: TATAGCATATCTCACACACACATAATGAATATTATA
DNA 2: TATAATATTCATTATGTGTGTGTGAGATATGCTATA
On to B31, for which the binding signal was 9.72 ln median PBM intensity, better of two orientations.

B32: CACACA_negctrl_site159 (dsDNA)
DNA 1: TTTTTTTATTATTCTTATATAAAAATTTTTTTTAAT
DNA 2: ATTAAAAAAAATTTTTATATAAGAATAATAAAAAAA
Turning to B32, the binding signal was 8.48 ln median PBM intensity, better of two orientations.

B33: CACACA_negctrl_site1791 (dsDNA)
DNA 1: TTTTAAAAAAAAAAAATAAATAAATAAGATATTATC
DNA 2: GATAATATCTTATTTATTTATTTTTTTTTTTTAAAA
As for B33, the binding signal is 8.55 ln median PBM intensity, better of two orientations.

B34: CACACA_negctrl_site170 (dsDNA)
DNA 1: TTTGTTAAAAATATATTATGAATAAAAATATATTTT
DNA 2: AAAATATATTTTTATTCATAATATATTTTTAACAAA
In the case of B34, the binding signal was 8.37 ln median PBM intensity, better of two orientations.

B35: CACACA_negctrl_site1629 (dsDNA)
DNA 1: TTTTTCTTTCTATTTATCAATATTAAAAAAAAAAAA
DNA 2: TTTTTTTTTTTTAATATTGATAAATAGAAAGAAAAA
Consider B35, for which the binding signal is 8.1 ln median PBM intensity, better of two orientations.

B36: CACACA_negctrl_site65 (dsDNA)
DNA 1: ATTAAAAATTATATTTTATAAAAATTAAAAGAAATA
DNA 2: TATTTCTTTTAATTTTTATAAAATATAATTTTTAAT
With B36, the binding signal was 8.5 ln median PBM intensity, better of two orientations.

B37: CACACA_negctrl_site1701 (dsDNA)
DNA 1: TTTTTTCAATTTTTTTTAAATAAACCACAAAAAAAA
DNA 2: TTTTTTTTGTGGTTTATTTAAAAAAAATTGAAAAAA
On to B37, for which the binding signal is 8.15 ln median PBM intensity, better of two orientations.

B38: CACACA_site8658 (dsDNA)
DNA 1: AACGAAAGAAAAAAAGCACACACAGTTTTGAGCAAT
DNA 2: ATTGCTCAAAACTGTGTGTGCTTTTTTTCTTTCGTT
Consider B38, for which the binding signal was 9.6 ln median PBM intensity, better of two orientations.

B39: CACACA_negctrl_site1823 (dsDNA)
DNA 1: TATTTCATCTTATTTTAGGAAAAACTAATATATAAG
DNA 2: CTTATATATTAGTTTTTCCTAAAATAAGATGAAATA
Regarding B39, the binding signal is 8.32 ln median PBM intensity, better of two orientations.

B40: CACACA_negctrl_site884 (dsDNA)
DNA 1: TATTAATCTTTTTTTAAACAAAAAATTAAGCAAATT
DNA 2: AATTTGCTTAATTTTTTGTTTAAAAAAAGATTAATA
For the molecule B40, the binding signal was 8.28 ln median PBM intensity, better of two orientations.

B41: CACACA_site841 (dsDNA)
DNA 1: GGCATGACTATCTGCACACATAAAAATAAGAAATAC
DNA 2: GTATTTCTTATTTTTATGTGTGCAGATAGTCATGCC
As for B41, the binding signal is 9.74 ln median PBM intensity, better of two orientations.
